The values below come from the Immune Epitope Database (IEDB).

Some results are limits rather than exact numbers.

Common to all, as to experiment: IEDB peptide-MHC binding, purified MHC/competitive/fluorescence; filed as Kd, often an IC50 or EC50 that approximates it; ≥ and ≤ were set here for values at or beyond the usual limits of such assays
Common to all, as to settings: source organism: Entamoeba histolytica HM-1:IMSS

Experiment [1] has as its target HLA-B*07:02.
The target in experiment [2] is HLA-A*02:12.
Experiment [3] has as its target HLA-A*24:03.
For experiment [4], the target named is HLA-A*02:11.
The target of experiment [5] is HLA-A*68:02.
Experiment [6] addresses HLA-B*39:01.
Experiment [7] addresses HLA-A*11:01.
The target of experiment [8] is HLA-B*58:01.
Experiment [9] deals with HLA-B*44:02.
The target of experiment [10] is HLA-B*15:01.
The target in experiment [11] is HLA-B*27:03.
Experiment [12] deals with HLA-A*03:01.
The target in experiment [13] is HLA-B*51:01.
Experiment [14] concerns the target HLA-A*30:02.
The target of experiment [15] is HLA-B*53:01.
In experiment [16] the target is HLA-B*27:05.
For experiment [17], the target named is HLA-A*01:01.
For experiment [18], the target named is HLA-A*29:02.
Experiment [19] has as its target HLA-B*18:01.
Experiment [20] has as its target HLA-B*14:02.
Experiment [21] has as its target HLA-A*30:01.
Experiment [22] concerns the target HLA-B*40:01.
Experiment [23] concerns the target HLA-A*66:01.
Experiment [24] has as its target HLA-A*02:16.

The term Kd denotes the free concentration of one partner at which half of the binding sites on the other are occupied at equilibrium, for simple one-to-one binding. Low values mean higher affinity, high ones lower affinity.

Consider EVIRATYPS, for which the Kd in experiment [1] is at least 5 µM; in [2], at least 20 µM; in experiment [3], at least 20 µM; in experiment [4], at least 20 µM; in experiment [5], 0.0002 µM; in experiment [6], at least 20 µM. For the same sequence, the Kd is at least 5 µM in [7]; at least 5 µM in experiment [8]; at least 5 µM in experiment [9]; at least 20 µM in experiment [10]; at least 20 µM in experiment [11]; at least 20 µM in [12]. Also, the Kd in experiment [13] is at least 20 µM; in [14], at least 5 µM; in experiment [15], at least 5 µM; in [16], at least 5 µM; in [17] it was at least 5 µM; in experiment [18], at least 20 µM. In addition, the Kd in [19] is at least 20 µM; in [20], at least 5 µM; in [21] it was at least 5 µM; in experiment [22], at least 5 µM; in experiment [23] it was 0.0244 µM; in experiment [24] it was at least 20 µM.
